T1: human BCMA ECD protein (Abcam ab50089) (human, UniProt Q02223 1-54)
T1 chain: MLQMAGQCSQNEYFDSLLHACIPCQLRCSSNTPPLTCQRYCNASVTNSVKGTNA


Key:
[1] = molecular target: BCMA protein of Cynomolgus macaque (Cynomolgus macaque, UniProt A0A2K5UD97 1-53); assay: Octet off-rate
[2] = molecular target: T1, human BCMA ECD protein (Abcam ab50089); assay: Octet off-rate

Chain of BCMA protein of Cynomolgus macaque (A0A2K5UD97 entry or part of it): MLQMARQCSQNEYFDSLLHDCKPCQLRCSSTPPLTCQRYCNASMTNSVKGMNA

koff [1] [s⁻¹]	koff [2] [s⁻¹]	Binder
0.00189	< 1e-07	heavy chain-only anti-BCMA antibody (UniAb) with the heavy chain variable region of SEQ ID NO: 13 (antibody, V domains shown) VH: QVQLVESGGGLVQPGGSLRLSCAASGFTFSSHAMTWVRQAPGKGLEWVAAISGSGDFTHYADSVKGRFTISRDNSKNTVSLQMNNLRAEDTAVYYCAKDEDGGSLLGYRGQGTLVTVSS
0.000322	< 1e-07	heavy chain-only anti-BCMA antibody (UniAb) with the heavy chain variable region of SEQ ID NO: 15 (antibody, V domains shown) VH: EVQLLESGGGLVQPGGSLRLSCAASGFTFSSYAMSWVRQAPGKGLEWVSSISGSGDYIYYADSVKGRFTISRDISKNTLYLQMNSLRAEDTAVYYCAKEGTGANSSLADYRGQGTLVTVSS
0.000941	< 1e-07	heavy chain-only anti-BCMA antibody (UniAb) with the heavy chain variable region of SEQ ID NO: 12 (antibody, V domains shown) VH: QVQLVESGGGLVQPGGSLRLSCAASGFTFTNHAMSWVRQAPGKGLELVSSISGNGRTTYYADSVKGRFTISRDISKNTLDLQMNSLRAEDTAVYYCAKDGGETLVDSRGQGTLVTVSS
